Results: the Human Domainome abundance scans (Beltran et al. 2025)
± gives the uncertainty stated by the source.

Experiment: abundance fitness (aPCA) (normalised: wild type 0, dead -1); higher = more abundant; growth selection in yeast, the domain comes from the species named
Details: Homo sapiens

Substance	abundance fitness
DnaJ homolog subfamily B member 1 V54M, P25685	-0.084 ± 0.14
DnaJ homolog subfamily B member 1 E43R, P25685	0.11 ± 0.051
DnaJ homolog subfamily B member 1 P39Y, P25685	-0.222 ± 0.14
DnaJ homolog subfamily B member 1 R25V, P25685	0.003 ± 0.062
DnaJ homolog subfamily B member 1 D57C, P25685	-0.09 ± 0.098
DnaJ homolog subfamily B member 1 L11D, P25685	-0.776 ± 0.16
DnaJ homolog subfamily B member 1 L55R, P25685	-0.769 ± 0.069
DnaJ homolog subfamily B member 1 R59K, P25685	-0.104 ± 0.11
DnaJ homolog subfamily B member 1 E50Y, P25685	-0.096 ± 0.12
DnaJ homolog subfamily B member 1 L29C, P25685	-0.119 ± 0.086
DnaJ homolog subfamily B member 1 G40Q, P25685	-0.103 ± 0.14
DnaJ homolog subfamily B member 1 E38H, P25685	0.017 ± 0.2
DnaJ homolog subfamily B member 1 D17G, P25685	-0.199 ± 0.087
DnaJ homolog subfamily B member 1 L11Q, P25685	-0.464 ± 0.14
DnaJ homolog subfamily B member 1 I20W, P25685	-1.42 ± 0.12
DnaJ homolog subfamily B member 1 K60T, P25685	-0.298 ± 0.09
DnaJ homolog subfamily B member 1 G10M, P25685	-0.191 ± 0.085
DnaJ homolog subfamily B member 1 K37E, P25685	0.117 ± 0.22
DnaJ homolog subfamily B member 1 I63M, P25685	-0.087 ± 0.085
DnaJ homolog subfamily B member 1 G10H, P25685	-0.378 ± 0.14
DnaJ homolog subfamily B member 1 N36V, P25685	-0.158 ± 0.088
DnaJ homolog subfamily B member 1 A12E, P25685	-0.277 ± 0.13
DnaJ homolog subfamily B member 1 K21Y, P25685	-0.121 ± 0.088
DnaJ homolog subfamily B member 1 K35R, P25685	0.034 ± 0.092
DnaJ homolog subfamily B member 1 A28Q, P25685	0.084 ± 0.16
DnaJ homolog subfamily B member 1 P39S, P25685	-0.078 ± 0.069

Substance	abundance fitness
DnaJ homolog subfamily B member 1 K44I, P25685	-0.279 ± 0.2
DnaJ homolog subfamily B member 1 S56M, P25685	-0.171 ± 0.095
DnaJ homolog subfamily B member 1 P58Y, P25685	-0.229 ± 0.13
DnaJ homolog subfamily B member 1 K35W, P25685	-0.963 ± 0.095
DnaJ homolog subfamily B member 1 P58R, P25685	-0.11 ± 0.073
DnaJ homolog subfamily B member 1 D57G, P25685	-0.298 ± 0.11
DnaJ homolog subfamily B member 1 E47T, P25685	-0.118 ± 0.068
DnaJ homolog subfamily B member 1 D53T, P25685	0.032 ± 0.086
DnaJ homolog subfamily B member 1 I63N, P25685	-0.012 ± 0.11
DnaJ homolog subfamily B member 1 L9E, P25685	-0.631 ± 0.13
DnaJ homolog subfamily B member 1 A51D, P25685	-1.19 ± 0.16
DnaJ homolog subfamily B member 1 D4Y, P25685	-0.256 ± 0.19
DnaJ homolog subfamily B member 1 L11M, P25685	-0.423 ± 0.12
DnaJ homolog subfamily B member 1 G10I, P25685	-0.756 ± 0.19
DnaJ homolog subfamily B member 1 S56F, P25685	-0.526 ± 0.12
DnaJ homolog subfamily B member 1 D65A, P25685	-0.123 ± 0.078
DnaJ homolog subfamily B member 1 E18A, P25685	-0.067 ± 0.074
DnaJ homolog subfamily B member 1 K21A, P25685	-0.071 ± 0.072
DnaJ homolog subfamily B member 1 I20M, P25685	-0.575 ± 0.12
DnaJ homolog subfamily B member 1 R13G, P25685	-0.305 ± 0.064
DnaJ homolog subfamily B member 1 E38S, P25685	-0.106 ± 0.083
DnaJ homolog subfamily B member 1 D17I, P25685	-0.029 ± 0.076
DnaJ homolog subfamily B member 1 D4T, P25685	-0.207 ± 0.18
DnaJ homolog subfamily B member 1 D17R, P25685	-0.211 ± 0.084
DnaJ homolog subfamily B member 1 K44N, P25685	-0.204 ± 0.13
DnaJ homolog subfamily B member 1 T8Y, P25685	-0.261 ± 0.05

Substance	abundance fitness
DnaJ homolog subfamily B member 1 K21P, P25685	-0.822 ± 0.08
DnaJ homolog subfamily B member 1 K60Y, P25685	-0.575 ± 0.29
DnaJ homolog subfamily B member 1 Q7V, P25685	-0.307 ± 0.087
DnaJ homolog subfamily B member 1 T8M, P25685	-0.121 ± 0.17
DnaJ homolog subfamily B member 1 Q7N, P25685	0.019 ± 0.13
DnaJ homolog subfamily B member 1 E62H, P25685	-0.351 ± 0.081
DnaJ homolog subfamily B member 1 L9I, P25685	-0.546 ± 0.13
DnaJ homolog subfamily B member 1 E18H, P25685	-0.066 ± 0.28
DnaJ homolog subfamily B member 1 Y31W, P25685	-0.188 ± 0.1
DnaJ homolog subfamily B member 1 R26S, P25685	0.064 ± 0.068
DnaJ homolog subfamily B member 1 R13S, P25685	-0.182 ± 0.056
DnaJ homolog subfamily B member 1 R13H, P25685	-0.191 ± 0.16
DnaJ homolog subfamily B member 1 R30H, P25685	-0.125 ± 0.088
DnaJ homolog subfamily B member 1 F45Q, P25685	-0.211 ± 0.11
DnaJ homolog subfamily B member 1 V54Q, P25685	-0.423 ± 0.21
DnaJ homolog subfamily B member 1 A51F, P25685	-1.49 ± 0.19
DnaJ homolog subfamily B member 1 L29I, P25685	0.116 ± 0.12
DnaJ homolog subfamily B member 1 R25S, P25685	0.018 ± 0.076
DnaJ homolog subfamily B member 1 A15F, P25685	-0.814 ± 0.13
DnaJ homolog subfamily B member 1 G40F, P25685	-0.049 ± 0.13
DnaJ homolog subfamily B member 1 K35M, P25685	-0.596 ± 0.1
DnaJ homolog subfamily B member 1 L9N, P25685	-0.664 ± 0.11
DnaJ homolog subfamily B member 1 G10W, P25685	-0.704 ± 0.12
DnaJ homolog subfamily B member 1 F45S, P25685	-0.143 ± 0.085
DnaJ homolog subfamily B member 1 E19Y, P25685	-1.06 ± 0.14
DnaJ homolog subfamily B member 1 N36H, P25685	0.002 ± 0.11

Substance	abundance fitness
DnaJ homolog subfamily B member 1 D17N, P25685	-0.104 ± 0.12
DnaJ homolog subfamily B member 1 R13K, P25685	-0.097 ± 0.089
DnaJ homolog subfamily B member 1 R25P, P25685	-0.462 ± 0.12
DnaJ homolog subfamily B member 1 K37D, P25685	-0.27 ± 0.2
DnaJ homolog subfamily B member 1 E62C, P25685	-0.361 ± 0.14
DnaJ homolog subfamily B member 1 K60C, P25685	-0.696 ± 0.21
DnaJ homolog subfamily B member 1 P58G, P25685	-0.238 ± 0.079
DnaJ homolog subfamily B member 1 E38L, P25685	-0.099 ± 0.061
DnaJ homolog subfamily B member 1 Q7R, P25685	-0.185 ± 0.071
DnaJ homolog subfamily B member 1 P58H, P25685	-0.192 ± 0.19
DnaJ homolog subfamily B member 1 V54C, P25685	0.063 ± 0.086
DnaJ homolog subfamily B member 1 Y6C, P25685	-0.863 ± 0.22
DnaJ homolog subfamily B member 1 E50R, P25685	-0.036 ± 0.062
DnaJ homolog subfamily B member 1 D34C, P25685	0.009 ± 0.14
DnaJ homolog subfamily B member 1 Y52E, P25685	-0.441 ± 0.069
DnaJ homolog subfamily B member 1 S56K, P25685	-0.051 ± 0.17
DnaJ homolog subfamily B member 1 I20K, P25685	-0.86 ± 0.087
DnaJ homolog subfamily B member 1 D65T, P25685	-0.228 ± 0.11
DnaJ homolog subfamily B member 1 A15L, P25685	-0.801 ± 0.071
DnaJ homolog subfamily B member 1 K21D, P25685	-0.25 ± 0.12
DnaJ homolog subfamily B member 1 D17T, P25685	-0.161 ± 0.11
DnaJ homolog subfamily B member 1 L11W, P25685	-1.44 ± 0.15
DnaJ homolog subfamily B member 1 A15C, P25685	-0.056 ± 0.14
DnaJ homolog subfamily B member 1 A12G, P25685	-0.421 ± 0.1
DnaJ homolog subfamily B member 1 E19R, P25685	-0.452 ± 0.083
